Source: the RNAGym collection of RNA variant scans (doi:10.1073/pnas.2313332121)
Fewer inactive variants are shown than the library holds.

B1: TPR 5TU (parent)
chain: GGAUCUUCUCGAUCUAACAAAAAAGACAAAUCUGCCACAAAGCUUGAGAGCAUCUUCGGAUGCAGAGGCGGCAGCCUUCGGUGGCGCGAUAGCGCCAACGUUCUCAACUAUGACACGCAAAACGCGUGCUCCGUUGAAUGGAGUUUAUCAUG

Variants of: B1
Assay: polymerase ribozyme fitness, log enrichment relative to wild type (log ratio); higher = more active; in vitro selection for triplet polymerase activity
In short: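 Input and output libraries were sequenced on Illumina after a single in vitro selection round, run in triplicate on PCR-built, transcribed mutant libraries of each subunit of a heterodimeric triplet polymerase ribozyme. Selection annealed libraries to a biotinylated primer, the partner subunit and triplets, incubated them frozen at −7 °C, then gel-excised extended constructs for streptavidin-bead capture and RT-PCR. Genotypes with ≥10 input reads and ≥1 read per output were kept. Fitness is the logarithm, taken in base 2, of genotype enrichment divided by wild-type enrichment, using inverse-variance-weighted replicate averages.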
With A26C C76U G81U G86A U144C the “polymerase ribozyme fitness (log ratio)” value was -3.81.
In the case of A22G A29U U77C C85G C95U C103U C114G C125U, the “polymerase ribozyme fitness (log ratio)” value is reported as at most -4.2.
In the case of C54A G81C, the “polymerase ribozyme fitness (log ratio)” value is reported as -0.408.
In the case of A41U C54G G88C U130A, the “polymerase ribozyme fitness (log ratio)” value is reported as at most -4.2.
With A73C C96G C118U G143U the “polymerase ribozyme fitness (log ratio)” value was at most -4.2.
For A12C A21G C51U G83U, the “polymerase ribozyme fitness (log ratio)” value was -2.15.
For C36U C51G U55A G67A C93U, the “polymerase ribozyme fitness (log ratio)” value was at most -4.2.
In the case of A40C C54U U56A G126U, the “polymerase ribozyme fitness (log ratio)” value is reported as -0.0276.
In the case of C36U C72U, the “polymerase ribozyme fitness (log ratio)” value is reported as -0.573.
With C8A A73G C93A U146C the “polymerase ribozyme fitness (log ratio)” value was -4.17.
For C32G G42C A49U G94C C95A G126A, the “polymerase ribozyme fitness (log ratio)” value was -3.97.
With C95U A142U U145G the “polymerase ribozyme fitness (log ratio)” value was -2.47.
For A20U C27U G42U A52C U55A C95G C96U, the “polymerase ribozyme fitness (log ratio)” value was at most -4.2.
With A3U C35G C93U G100A C105G G133C the “polymerase ribozyme fitness (log ratio)” value was at most -4.2.
For G11A C57A, the “polymerase ribozyme fitness (log ratio)” value was -1.44.
In the case of A28G A52U G84A C103A, the “polymerase ribozyme fitness (log ratio)” value is reported as at most -4.2.
In the case of A12G A16G U44G G81C G84A C95U U144A U146C, the “polymerase ribozyme fitness (log ratio)” value is reported as at most -4.2.
For C10A C79A A97G A150G, the “polymerase ribozyme fitness (log ratio)” value was at most -4.2.
With A16G G46U the “polymerase ribozyme fitness (log ratio)” value was -1.19.
With A41G G48A C87A U148C the “polymerase ribozyme fitness (log ratio)” value was at most -4.2.
In the case of C87U C132U, the “polymerase ribozyme fitness (log ratio)” value is reported as -1.11.
In the case of G84U G126A, the “polymerase ribozyme fitness (log ratio)” value is reported as -1.87.
In the case of C10G G42U G58A G86U A97U U101G G141C, the “polymerase ribozyme fitness (log ratio)” value is reported as at most -4.2.
In the case of U15G A60G C87G C103G A147C, the “polymerase ribozyme fitness (log ratio)” value is reported as at most -4.2.
In the case of A40C G68U G86A C103G, the “polymerase ribozyme fitness (log ratio)” value is reported as at most -4.2.
For U13C A21C A23C G92U A142G A147U, the “polymerase ribozyme fitness (log ratio)” value was at most -4.2.
With A49C U55A G143C the “polymerase ribozyme fitness (log ratio)” value was at most -4.2.
In the case of A22U G88U C116A A119U, the “polymerase ribozyme fitness (log ratio)” value is reported as -4.1.
In the case of G25C C132U, the “polymerase ribozyme fitness (log ratio)” value is reported as -3.65.
In the case of C5G U13C A17C G83U U134C A137C, the “polymerase ribozyme fitness (log ratio)” value is reported as at most -4.2.
In the case of A30G G42U A113U C114U C125U, the “polymerase ribozyme fitness (log ratio)” value is reported as at most -4.2.
With A16C U33C U77A the “polymerase ribozyme fitness (log ratio)” value was at most -4.2.
With G58A A64G A91C A147U the “polymerase ribozyme fitness (log ratio)” value was at most -4.2.
For U56A U90C U144G, the “polymerase ribozyme fitness (log ratio)” value was -3.91.
In the case of G34U C54U A66C A91U A121U, the “polymerase ribozyme fitness (log ratio)” value is reported as -4.11.
With A40G G124U the “polymerase ribozyme fitness (log ratio)” value was -2.64.
With G34U A39U C43A C85U G117A the “polymerase ribozyme fitness (log ratio)” value was -3.98.
With G50A C103U the “polymerase ribozyme fitness (log ratio)” value was -1.49.
With G84A U148C the “polymerase ribozyme fitness (log ratio)” value was -2.65.
For G84A U148A, the “polymerase ribozyme fitness (log ratio)” value was -2.74.
In the case of C8A C32G A40U A52U A73U A91U, the “polymerase ribozyme fitness (log ratio)” value is reported as at most -4.2.
For U9C U44A G46C A47G C85U A121G, the “polymerase ribozyme fitness (log ratio)” value was at most -4.2.
In the case of A16U C35U G92U C116G, the “polymerase ribozyme fitness (log ratio)” value is reported as -3.21.
In the case of C14A A20G C38A A39G C54U A91C A106U G124C, the “polymerase ribozyme fitness (log ratio)” value is reported as at most -4.2.
For U7G U45A C57U C76A G83A G84A, the “polymerase ribozyme fitness (log ratio)” value was at most -4.2.
With U55G U134A U139A the “polymerase ribozyme fitness (log ratio)” value was at most -4.2.
With C8G A12G G42C U82A C95U C108U G136A G143A A150U the “polymerase ribozyme fitness (log ratio)” value was at most -4.2.
With U53G C96A U104G the “polymerase ribozyme fitness (log ratio)” value was -3.96.
For A17G A21C U44A A91C C108U, the “polymerase ribozyme fitness (log ratio)” value was at most -4.2.
In the case of U53C G94C A98C U148G, the “polymerase ribozyme fitness (log ratio)” value is reported as at most -4.2.
For A41C A60G C75A A138U G141U U146C U148C, the “polymerase ribozyme fitness (log ratio)” value was at most -4.2.
With A49C U61G C99G G124A the “polymerase ribozyme fitness (log ratio)” value was at most -4.2.
For C14U A19C C76U C99U, the “polymerase ribozyme fitness (log ratio)” value was -3.03.
For C32U C125U, the “polymerase ribozyme fitness (log ratio)” value was -2.22.
In the case of C114U C123U, the “polymerase ribozyme fitness (log ratio)” value is reported as -2.17.
For G59A G88A, the “polymerase ribozyme fitness (log ratio)” value was -4.04.
For A20C U101G C149U, the “polymerase ribozyme fitness (log ratio)” value was -1.64.
For A26U G92C, the “polymerase ribozyme fitness (log ratio)” value was -3.52.
For C36A U56G G141U, the “polymerase ribozyme fitness (log ratio)” value was at most -4.2.
With G34A G67U U77C A89C U101G C116G U151C the “polymerase ribozyme fitness (log ratio)” value was at most -4.2.
In the case of U77C C87G A142G, the “polymerase ribozyme fitness (log ratio)” value is reported as at most -4.2.
With A20U A24G A29C C38G G80C A89G C105U C116G the “polymerase ribozyme fitness (log ratio)” value was at most -4.2.
With A23U G88U C116U G140U G143U U146G the “polymerase ribozyme fitness (log ratio)” value was at most -4.2.
For U45A C93U A147U, the “polymerase ribozyme fitness (log ratio)” value was -2.81.
For A40C A113U C118U G136A, the “polymerase ribozyme fitness (log ratio)” value was -2.68.
In the case of C57U C85A A98C, the “polymerase ribozyme fitness (log ratio)” value is reported as -1.23.
For A12G C54A G86C C87U G126A, the “polymerase ribozyme fitness (log ratio)” value was at most -4.2.
In the case of C14U G94C A107G G117A A142U, the “polymerase ribozyme fitness (log ratio)” value is reported as at most -4.2.
With A20U G83A C96G C118U U134A U144A the “polymerase ribozyme fitness (log ratio)” value was -3.46.
With A20G C51U the “polymerase ribozyme fitness (log ratio)” value was -0.842.
For C10U A23G G50U U53A G71C C87A A120U, the “polymerase ribozyme fitness (log ratio)” value was at most -4.2.
In the case of C8G A24G U33G G59A G71A G74A U144C, the “polymerase ribozyme fitness (log ratio)” value is reported as at most -4.2.
In the case of C54G G83C A97U A98U, the “polymerase ribozyme fitness (log ratio)” value is reported as -2.8.
In the case of G92A C116A G143C A150G, the “polymerase ribozyme fitness (log ratio)” value is reported as at most -4.2.
In the case of A12G A47C G58C C69A C93A U144C, the “polymerase ribozyme fitness (log ratio)” value is reported as -3.84.
For A16C G34U C93U C105U G112A, the “polymerase ribozyme fitness (log ratio)” value was at most -4.2.
With C32G C76U G88C C96A C103U U127G C129A U139A A142U the “polymerase ribozyme fitness (log ratio)” value was at most -4.2.
For C8U A28G G34A C36U G86U A91G A110U, the “polymerase ribozyme fitness (log ratio)” value was -4.19.
With A41G C51A G83A the “polymerase ribozyme fitness (log ratio)” value was -2.57.
For A40U A41C A49G C96A, the “polymerase ribozyme fitness (log ratio)” value was -1.32.
For U4G C93U, the “polymerase ribozyme fitness (log ratio)” value was -0.624.
In the case of U15A C57U C63A G68A C87U A122U, the “polymerase ribozyme fitness (log ratio)” value is reported as at most -4.2.
In the case of A24G A97U G140U, the “polymerase ribozyme fitness (log ratio)” value is reported as at most -4.2.
